Experimental data: the DeepSol protein solubility set

Test: soluble on expression in E. coli; label from the status in PepcDB or PDB records

Soluble on expression in E. coli, not soluble:
MGSDKIHHHHHHMTARLESNAPVQYAFRLDDREVAVNPLIGRPLRLEYLGSIFCTHCGRKTKKSFSQGYCYPCFTRLAQCDSCIVSPEKCHYEQGTCREPEWGERFCMTDHVVYLANSSGVKVGITRASQIPTRWIDQGARQALPILRVATRQQSGLVEDLLRSQVADRTNWRAMLKGEAEPVDLAAVREQLFDQCADGLRELQQRFGLQAIQPVIDLDPLEIAYPVEAYPSKVASLDLEKTPIVEGTLRGIKGQYLILDTGVINIRKYTAYQIAVHH
MGSDKIHHHHHHMTDDIYFAPLLPWQHGLWSQLTMRVLAQKQSLPHALLAAGMQGMGKRAFVWRLVAWLLCRARDEHPLGACGHCESCQWLRSGTHPSLQALPLISLPISADNAHTQEVASGTAKDKKTTKAASNGSLKIKVDEIRALQPFIYQGGQGMRICVLDHAEQMTIAAANALLKTLEEPQAQVHLFLISDAPAQLLPTIKSRVQQLSLQTIDPAIAVDYVTKVLGSTVHREALGTDVIEQLIQLANGAPLAAVALAQAPWYSKRALWLTTWQALRSGKRSSVAASDYWQIHLGIAEFIRLSELMVIDIRRVGLGFEAQQKDINFSTTLNGYQPIDNELEAFAHSLQQTKIALQQNVQEKFAYDKLMQELACL
MGSDKIHHHHHHMTEKEIVDYIKNNDIQKIKFAFADIDGVLRGKLIHTDKFLDGLKEGLGFCDVVFGWDSADAGYDNVSATGWHTGYPDKLAQIDLSTFRLIPWENNTPFFLADYKNNDQTALPICPRTLLKRIAQECSAMGYHAAFAQEFEWFNFRETQQSLVEKNFHDLTPLTNGMFGYSILRPSLEDAYYNDLFDLLGAFDIPLEGLHTETGPGVYECAYFHDEVVRAADKATLLKTAVKEIANKHGIIATFMAKISDKLPGCSGHIHQSLWNTGKTENLFYDPNQEHNMSDLFKHYVAGQLYCLPHIVPMLAPTVNSYKRLVEGAWAPTTLTWGFDNRTTALRVLNHSKKTARLEQRVSGSDTNPYLAIAASLASGLYGIKHKLSLDVPPTTGNGYANKSNGSIASNLMDATQLMKNSSIAKELFGEAFVQHFTATREWEWRQFSKHVSDWEMKRYMEII
MGSDKIHHHHHHMTETWNFINTGSKDPYYNMAMDEALLNFVSRGEIDPVIRFYTWNPATLSIGYFQRLQKEIDIDKVKEKGFGLVRRQTGGRGVLHDKELTYSVIVPESHPNMPSTVTEAYRVISQGLLEGFKNLGFNTYFAVPKTPEERQKLKQPRSSVCFDAPSWYELVVEGRKIAGSAQTRQKGVILQHGSILQDIDIDELFDMFIYKNERLKLKMKEAFVEKAVAINDISDKHITISQMEEAFEKGFKKGLNIELKPLELTEAQLAEVEELTEKYRSDEWMFRK
MGSDKIHHHHHHMTEWVPVIYGIGLDAAGRCQHYHLETDIAALWCRRCQHYYACYRCHDTLCQHTFVASAPTDLAVMCGACRYRMTVDRYHEGQCPHCHRPFNPRCRLHDQVYFEK
MGSDKIHHHHHHMTGDATPPVGLRFAQDKTHEVFMKRYRHTQILALLETRSAIRATEAAEMLGVSVGTIRRDMAELEAGGYLNRTHGGAFAAIEGEAGFMRRTCWNRDKKRVIGQAAAAHISSGSVVFIDGGTTPEAMLPFLVEKTSLTVVTCGLNIALQLLRWPYISTILLGGEVHAESRTVTGTLPVTQLDSFGMRFDMAVIATAGISAEHGATNRMLERLALKQLVLRNSASSILVGDSSKVNCAFLGRVAPLSAFSLCIMDDDLTDEQKAKLSEAGRFEFVPLEGSRRR
MGSDKIHHHHHHMTHPALIDELQALADPGKVLTDAGSLETYGKDWTRQFTPAPLAIVFPKTTEQVQAIVRWANERLVALVPSGGRTGLSAAAVAANGEVVVSFDYMNQVLELNLTDRTAVCQPGVITRQLQALAEDNGLYYPVDFASSGSSQIGGNIGTNAGGIKVIRYGMTRNWVAGLKVVTGKGDLLELNKDLIKNATGYDLRQLFIGAEGTLGFVVEATMRLDRAPKNLTAMVLGTTDFNSIMPVLHAFHGKLDLTAFEFFSDKSFARVMARGDVPSPFDTPCPFYVLLEFEATTEDLADQALATFEHCVEQGWVLDGVMSQSEQQLRNLWKLREYISETISHFTPYKNDISVSVSKVPEFLAEIDAIVAEYYPDFEVLWYGHIGDGNLHLNILKPENLDKDEFFVKCARVNKWVFETVEKYNGSISAEHGVGMTKRDYLTYSRSPVEIEYMKALKAVFDPNGIMNPGKIFAV
MGSDKIHHHHHHMTHPDGLFYQLIQDLAQGKGLPHLIWRLSQILNRPVLLTNSVHRVLVFHDPHHLNLDLDEFLYVPPVKLDEADFLNRSEHSLHHGQLTLNGQVFPFVYLPLLAGDYCLGYIFVLETYPLADSLKPKSLSAEDKETIFEASMPLLLCLKNSSEVSLRQEQYRDDFIRDILYNNYDSKAAIHEKAKSWGWNLQGSLLALVIDLPDRDFKTAREILPRLFNHSSPISAYINLQLVIILNINGLKKVKLKTALNNFINSFLDRLADHGKDRSSIGIGIGSGVPSITDLYKSYQEAKVAWELGKVFDHKSVCYFEEMGFLKFIFTQPARELEEFSQRVLGPLLEYDQAENTGLLDSLRVFIEYKCQIAECSKALYVHENTLRNRIKKIEQVTGFDLRRVDHMVNVYIALQVLNLGKDD
MGSDKIHHHHHHMTHPSVDQENLPQTASLPENIIEAAITWSIRLDYNDPTPETRQSFDQWLHADPLHRLAWQRVDSLNNLRNDCRSLPSRLAFDTLQEVDSRRQSRKLSRRNAMKLLSLAGITIATGWTVREHTPWQRLLADASTVTGEQRVLHLTDGTVVVLNTDSAVSFDLTEAQRLIVLQRGEMHITTGPDSEVSARIGRKRPFRVRTPFGELQALGTRFVVRLDEQHARVSVQEGAVELHPSAGGSSAIVQAGESRRLTGSSILPEADRYFEEDGWVSGVIAGKNIRLADLVAELSRYRPGYIVCDERVADLPISGIFHVKDTDKALQFLAQTQPVSVMYRTRFWVIVGPKSLYR
MGSDKIHHHHHHMTINQEHLTDCKLCKAHSWELVATLISGIWDKRHDELNREELRFPIGQCTKCHHVQVAIPYTQSIFDSLYFSNQAEPDMWCETPNGQKSPYEEMLEFIAPYIQDGAHIVDFGAGAGTTLKHIENTHKERQLTLASVDFHNHIQSETIEYLSADLNKLEALQAEFVTQPISLAISTHVLEHLIDPIHFLTQIRSMLSDDGHIFIEVPDCSPDAFIEHLAFTNLVHGQHIHYYSKDSLAQIARLAGLKIDALQQLTTGDIPRLLILLSKTTQESSTTVLPVTSGADVAVVKRFNDYHAFQDSLFKQIQQALMLNDTIGIWGIGGDFYQLTQSYPELIDLIQANSIILYDYELAGHTYVGSSIRCSSAIASTRYPVFMLPLYAPTREKMHQVSQSWSAQVIDPF
MGSDKIHHHHHHMTIRYTFGGDEFIFVEISESMSLDAFFKGTAITRELRRRNVPGVTEICPANASYQVRYDPDVIEPDTLLALLKTIEAEVGEAALNIDTRIVEVPVLYNDPWTHETLMRFRERHQAPESTDLEYAARVNGKRDIDEFIAAHAGSPWFVSMVGFVAGLPFMYQMVERERQLQVPKYLRPRTDTPKLTVGHGGCFGCIYSVRGAGGYQMFGVTPAPIFDPAQRLDYLRDFMVFFRPGDIVKFKPIDRAEYDAAVAAVEAGTFTLRVKPVRFALEAFLRDPHAYNRSLVEVLDAN
MGSDKIHHHHHHMTKAVAETLESKAAKAAPMDRLWAENDDSRVTGDPSLVVDVAGFEGPLDLLLHLARTQKVDLARISILALVEQYLAFVETARALRLELAADYLVMAAWLAFLKSKLLIPKQPGEEGESGEELAAVLQFRLKRLEAMRDAAARLVNRNRLGRDVFARGMPEMVIIEKRNAYSASLYDLLTAYAQQRQKQAVTNVTIARRGVWSLKDARDILTRLIGSLRDWTALDSFLIRYMTSPEERRTAIASSFAATLELVRERKMDLRQDEVFAPIYLRDHRAPAIKAVEVAS
MGSDKIHHHHHHMTKEFTPILLGSDINVYGMARSFNEAYGIRVKALADVQLAATRYSKIVDVELHHGFSADPTFMDVMRKKMEIYKDHKEPVILIACGDGYAELLSKHKDELSKVFIVPYIEYDLLEKLISKEGFYEVAEEYGLPYPKTKIITMDDYKSGKYKDVPFQFPVELKPEDPVSWLNCQFEGRKKTFTLHDENEFEDIVTKIYTHGYTEDLILQDFIPGDDSNMRTLNAYVDKNHQVKMMCLGHPLLEDPTPQSIGNYMTILPAYDEKLYEQVQSFLEKLNYTGMANFDIKYDERDGQYKFFEINLRQGRSSFYVTLNGYNLAKWYIDDYVEDNLSDKKTVYGNKLKSKHVLWMGVPVKIFKEYAFENEAKDTAEELIHEGRYGTTVFYDKDRSLKRWLLMKYMFHNYFARYKKYYEVNKGQYFKKNK
MGSDKIHHHHHHMTKIGEKRYIFYLTNTKIDQSIMLSELKTFIAVSQYGTFSGAGARIGLTQSAVSAQMQRLEEELGFALFDRTGRSATLNDAGRETLALAEEMMTLYARLSERGAVAAESGMLRVGAIASAQVSFLADALARFRDDRPGWRIRVVPGVSLGLLGQVDSGELDLAVIIKPPFALPSELEWRTLVTEPFVLLVPKALVRGKGNARSWRELLRSEPFIRYDRTSFGGRLVDRFLRRSRLNVHDVIELDELQGIVQLVARGIGVALIPDSAGLGKWPAGVAALELGEATFQREIGLVQRPRHSRQAVAGVLADCIGTAAGV
MGSDKIHHHHHHMTKRAVVAGINDYRNWNSVGFGNLSWCLTDAQSFAEDVLVHGRGFRPDDITVLLDRDATRTNILEHLRRLLARADLGDVICLYFSGHGDRAQVPGTPSEWHETIVPYDGAAMISDHEINALIAGLEFNRLNLTLVLDSCHSGGVYDPAPPQGSKVAQWGEDKLGALVSTCKTILPTICAQTVDPFVNNIQAILRAVDSATMTVDGAKDTAETAKATLFSACDFDETAKENPTLRHGFMTKALLDTVTQSAFKMPNRLLASDLRGKVAAFVSQFGTSQQTPCLRGRPVRQDEDFLTEWTFSI
MGSDKIHHHHHHMTLEHRWTGAISRLDLASGVLQQPDGDWVDEQLHHGTKVVVILRGAMRALIDGCGSEFSIAGPTVCVIRAPADASGRQMITADEPLHYVMVKAAFEPGSEADRERDPLAPLFCTDRPSLQHIEAPRALQALCTQLEVCPFVGAARDLFLSAKAIEILALACDAVETNIATETLRPSLGDVERLKKARAILLERLGAPPNLPALAAAVGMNPRKLTDGFQAAFGTTVNDFLQDARLNEAYRLLSSGATNVSEAAHRVGYTPAYFSAVFRKRFGISPRDLL
MGSDKIHHHHHHMTLELCRLSLQQTQELLRLTDATLKNICSRRFSGEELYSEAIRRVLGGGGKRGPESIFLLIDGIGGTSRGWIFQLQAGELVRSSDEILVDADSVYSLGRLGSEVLVSNWRESFESIERYQVIFHPDIVKHIAKPIRNFVACQISGESNGALLAFNYAGEATEYDGDVLRGLSVVIGSLVTLSVMVRETEHAFIYTIEALARACEAAEESTGDHIVRVNRYAGALAAHMDLSPDFVEVISYSAQMHDVGKIRVPTAILLKPGPLDEAEERVMRLHPEFGEQILGDSPRLSVAREIALSHHENWDGSGYPRGLQGEAIPLAGRIVKLADVYDALRSRRSYKKALSHAEARAVFLNGDERITPRSHFDPRVLETFFRIEPLFERIYQSSRNQQV
